Laboratory results as given in publication PMC4504198 (Chemical biology & drug design, 2010).

Assay: in vitro
Format: in vitro ADME
Conditions: human, plasma

| Compound | half-life [days] |
| --- | --- |
| [N-]=[N+]=NC(CCCCNC(=O)C1=C[C@H](O)[C@@H](NC(=O)[C@@H](CCC(=O)O)NC(=O)C2=C[C@H](O)[C@@H](NC(=O)[C@@H](CCC(=O)O)NC(=O)C3=C[C@H](O)[C@@H](NC(=O)[C@@H](CCC(=O)O)NC(=O)CN4CCN(CC(=O)O)CCN(CC(=O)O)CCN(CC(=O)O)CC4)[C@H]([C@H](O)[C@H](O)CO)O3)[C@H]([C@H](O)[C@H](O)CO)O2)[C@H]([C@H](O)[C@H](O)CO)O1)C(N)=O (some centres unmarked) [compound 7] | 4.08 |
| [N-]=[N+]=NC(CCCCNC(=O)[C@H](CCC(=O)O)NC(=O)C1=C[C@H](O)[C@@H](NC(=O)[C@H](CCC(=O)O)NC(=O)C2=C[C@H](O)[C@@H](NC(=O)[C@H](CCC(=O)O)NC(=O)C3=C[C@H](O)[C@@H](NC(=O)CN4CCN(CC(=O)O)CCN(CC(=O)O)CCN(CC(=O)O)CC4)[C@H]([C@H](O)[C@H](O)CO)O3)[C@H]([C@H](O)[C@H](O)CO)O2)[C@H]([C@H](O)[C@H](O)CO)O1)C(N)=O (some centres unmarked) [compound 10] | 16.2 |
